Article PMC7782850, “Metaxins are core components of mitochondrial transport adaptor complexes” (Nature Communications, 2021)

T1: His-MIRO-1 (C. elegans, UniProt Q94263 1-602)
T1 construct: C. elegans MIRO-1, residues 1-602; source: E. coli BL21 (DE3) codon plus, purified (Ni2+-Sepharose, size-exclusion chromatography)
T1 sequence (looked up): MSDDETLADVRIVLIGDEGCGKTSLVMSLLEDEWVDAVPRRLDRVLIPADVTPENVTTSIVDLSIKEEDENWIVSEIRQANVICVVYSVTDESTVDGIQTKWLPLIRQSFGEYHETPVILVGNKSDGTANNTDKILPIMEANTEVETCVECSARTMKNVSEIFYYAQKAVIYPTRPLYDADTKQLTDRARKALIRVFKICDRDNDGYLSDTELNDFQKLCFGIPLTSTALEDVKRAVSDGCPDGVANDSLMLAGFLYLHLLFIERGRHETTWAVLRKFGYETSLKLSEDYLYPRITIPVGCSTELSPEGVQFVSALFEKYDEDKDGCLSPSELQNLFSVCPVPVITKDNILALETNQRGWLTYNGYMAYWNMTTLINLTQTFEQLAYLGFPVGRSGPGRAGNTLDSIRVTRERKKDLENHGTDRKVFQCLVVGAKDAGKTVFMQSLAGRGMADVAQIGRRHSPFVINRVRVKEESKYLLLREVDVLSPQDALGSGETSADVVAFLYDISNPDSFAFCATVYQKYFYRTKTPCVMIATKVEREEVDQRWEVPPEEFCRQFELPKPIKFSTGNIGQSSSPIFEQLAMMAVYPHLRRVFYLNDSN

T2: Trx-MTX-1 (C. elegans, UniProt O45503 1-281)
T2 construct: C. elegans MTX-1, residues 1-281
T2 sequence (looked up): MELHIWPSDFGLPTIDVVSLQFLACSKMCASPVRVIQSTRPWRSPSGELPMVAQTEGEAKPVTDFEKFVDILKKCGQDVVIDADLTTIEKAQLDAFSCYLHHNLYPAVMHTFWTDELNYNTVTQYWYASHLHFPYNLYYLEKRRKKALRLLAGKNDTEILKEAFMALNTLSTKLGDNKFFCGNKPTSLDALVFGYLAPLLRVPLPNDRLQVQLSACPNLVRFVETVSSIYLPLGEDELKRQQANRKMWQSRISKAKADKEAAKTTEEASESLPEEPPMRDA


Assays:
His-MIRO-1 = target: T1, His-MIRO-1; assay: SEC; analytical gel filtration of purified proteins, Superdex-200 10/300, 25 mM HEPES pH 7.4, 100 mM NaCl, 1 mM DTT, 1 mM EDTA; fractions analysed by SDS-PAGE with Coomassie-blue staining; conditions: both partners purified
Trx-MTX-1 = target: T2, Trx-MTX-1; assay: as above; conditions: both partners purified

binding result (His-MIRO-1)	binding result (Trx-MTX-1)	Binder
binds	–	MTX-1/2 complex (formed by co-expression of Trx-MTX-1 and Trx-MTX-2) (complex, C. elegans, C. elegans MTX-1, residues 1-281; C. elegans MTX-2, full length; Complex formed beforehand by co-expression of the two chains; also called MTX-1/MTX-2 complex; metaxin complex; source: E. coli BL21 (DE3) codon plus, co-expressed (pRSFDuet-1); in cell lysate (pull-down); purified (Ni2+-Sepharose, size-exclusion chromatography) for gel filtration) chain 1: MELHIWPSDFGLPTIDVVSLQFLACSKMCASPVRVIQSTRPWRSPSGELPMVAQTEGEAKPVTDFEKFVDILKKCGQDVVIDADLTTIEKAQLDAFSCYLHHNLYPAVMHTFWTDELNYNTVTQYWYASHLHFPYNLYYLEKRRKKALRLLAGKNDTEILKEAFMALNTLSTKLGDNKFFCGNKPTSLDALVFGYLAPLLRVPLPNDRLQVQLSACPNLVRFVETVSSIYLPLGEDELKRQQANRKMWQSRISKAKADKEAAKTTEEASESLPEEPPMRDA chain 2: MSSSGVITQLVTDALSMNAAQDWEDVSLFTPYLNDQALMYDFADCLAVQTFLRMTSLPFNVRQRPNVDFISPDGVVPLLKINKTLITGFNAIVDFVHKKGVTLTSHLSETQVADMRANISMIEHLLTTVEKFVLWNHDETYDKVTKLRYGSVYHWPLSSVLPFVKRRKILEELSDKDWDTKTMDEVGEQADKVFRALSAQLGSQKYLTGDLPTEADALLFGHMYTLITVR
binds	binds	Trx-MTX-2 (natural protein, C. elegans, UniProt P34599 1-230, looked up, C. elegans MTX-2, full length; source: E. coli BL21 (DE3) codon plus; in cell lysate (pull-down); purified (Ni2+-Sepharose, size-exclusion chromatography) for gel filtration) MSSSGVITQLVTDALSMNAAQDWEDVSLFTPYLNDQALMYDFADCLAVQTFLRMTSLPFNVRQRPNVDFISPDGVVPLLKINKTLITGFNAIVDFVHKKGVTLTSHLSETQVADMRANISMIEHLLTTVEKFVLWNHDETYDKVTKLRYGSVYHWPLSSVLPFVKRRKILEELSDKDWDTKTMDEVGEQADKVFRALSAQLGSQKYLTGDLPTEADALLFGHMYTLITVR
